In patent US20140256626A1 (priority 2011, published 2014):
Read-outs that look alike come from different tables or passages of the source.

How the values were obtained:
[1] = assay type: physicochemical; settings: for t1/2 @ pH 7.4: buffer; for Rate of exenatide release: 50 μM conjugate
Description: Release rates were determined to be:

[2] = rat, in vivo, iv
Description: The solution was administered by i.v. injection to cannulated male Sprague Dawley rats at 100 μL/100 g body weight. A single animal was used for a complete time course, repeated in duplicate.
Rat serum samples were thawed on ice, and 200 μL was adjusted to pH ˜5.5 by addition of 5 μL of 2M acetic acid.
Proteins were precipitated from 50 μL of acidified rat serum by addition of 150 μL of cold MeOH containing 40 μg/mL Fmoc-Lys (DNP)OH as an internal standard for volume deviations. The samples were kept on ice for 2 hours and centrifuged at 14,000 rpm for 10 min at 4° C. The supernatant was analyzed on a Shimadzu™ HPLC with a Phenomenex® Jupiter® C18 300A 5 μm column (4.6×150 mm) at 40° C. The mobile phase consisted of H2O/0.1% TFA (Buffer A) and ACN/0.1% TFA (Buffer B) at 1 mL/min. […] Quantitation was performed by comparison of peak areas to standard solutions of mPEG-coumarin after MeOH precipitation in rat serum (Sigma-Aldrich) as above. Any volume deviations were corrected using the peak area of the Fmoc-Lys (DNP)OH internal standard in each sample.
Serum samples were treated with 2 volumes of acetonitrile (ACN) and centrifuged. The supernatant was dried, reconstituted in 1% formic acid and applied to HPLC (below). The sample was eluted by a water-ACN gradient containing 1% formic acid. […] HPLC-MS/MS analyses were carried out on a Sciex™ API-5500 mass spectrometer coupled with a Shimadzu™ HPLC system. The Shimadzu™ HPLC system consisted of two LC-30AD HPLC pumps and a SIL-30AC autosampler with a 100 μL loop installed. The chromatographic separations were achieved on a Jupiter® (Phenomenex®) 5 μm C18, 300 Å, HPLC column, 2.0×150 mm, with mobile phase gradients. The mass spectrometer was operated in positive ESI mode and the resolution setting used was unit for both Q1 and Q3. […] Peak-area integrations were performed using Analyst software (version 1.5.2) from AB Sciex™.

## 4-chlorophenyl-SO2: DBCO-Lys(DEAC)-[GL4-400] 40 kDa PEG conjugated to N-[7-azido-1-(4-chlorophenylsulfonyl)-2-heptyloxycarbonyl]-exenatide
[1]
  t1/2 @ pH 7.4: 59 h
[1]; pH 8.5, 100 mM bicine
  Rate of exenatide release: .00248 h⁻¹

## Phenyl-SO2: DBCO-Lys(DEAC)-[GL4-400] 40 kDa PEG conjugated to N-[7-azido-1-(phenylsulfonyl)-2-heptyloxycarbonyl]-exenatide
[2]
  Conjugate clearance rate: 0.015 h⁻¹
  Conjugate clearance t1/2: 46 h
  Plasma half-life of the conjugate: 28 h
[1]
  t1/2 @ pH 7.4: 133 h
[1]; pH 9.5, 100 mM sodium borate
  Rate of exenatide release: .00726 h⁻¹

## CH3—SO2: DBCO-Lys(DEAC)-[GL4-400] 40 kDa PEG conjugated to N-[7-azido-1-(methylsulfonyl)-2-heptyloxycarbonyl]-exenatide
[1]
  t1/2 @ pH 7.4: 483 h
[1]; pH 9.5, 100 mM sodium borate
  Rate of exenatide release: .00301 h⁻¹
